Test [1] concerns MB49-Luc cells. Description: Cell adhesion assay on coated microtiter plates. It counts as cell-based, murine. To be noted: MB49-Luc cells; plates coated with 250 μg/ml GNRs. The method, then:
(§1) The plates were washed and blocked with 2% BSA in DMEM or RPMI-1640 (200 μl/well, 1 h). MB49-Luc and 5637 cells were detached with DPBS-E, washed twice with DPBS, and suspended in DMEM or RPMI-1640 containing 0.1% BSA (binding buffer-3), and added to the coated-plates (1.5×10^5 cells/well, 100 μl). After 1-2 h of incubation at 37° C., 5% CO2, the plates were washed with binding buffer-3. Adherent cells were fixed and stained with 0.5% crystal violet in 20% methanol. After washing with water, the dye was extracted from cells using a 10% acetic acid solution (140 μl/well) and the absorbance at 570 nm was measured using a microplate reader.

Test [2] deals with 5637 cells. Description: Cell adhesion assay on coated microtiter plates. It counts as cell-based, human. Conditions: plates coated with 250 μg/ml GNRs. The method, then: as §1
The test system of test [3] is MB49-Luc derived orthotopic bladder tumor. The test is described as follows: PAI of orthotopic MB49-Luc bladder tumor after intravesical instillation. It counts as in vivo, mice. Conditions: intravesical co-administration. The method, then:
Murine orthotopic bladder tumor model: All procedures and studies involving mice were approved by the Institutional Animal Care and Use Committee of San Raffaele Scientific Institute and performed according to the prescribed guidelines (IACUC, approval number 942). Female albino C57BL/6J mice (9 weeks old, weighing about 20 g, Charles River Laboratories, Italy) were anesthetized with ketamine (80 mg/kg) and xylazine (15 mg/kg) and kept in dorsal position. Using a 24-gauge catheter, the bladder of each mouse was emptied and instilled with or without MB49-Luc cells (10^5 cells/100 μl in DPBS). Thirty minutes later the catheter was removed, and mice were allowed to recover and returned to their cage. Tumor growth was monitored by measuring the tumor volume through US imaging (see below) and in vivo bioluminescent quantification after administration of luciferin (15 mg/kg, intra peritoneum) using the non-invasive In Vivo Imaging System (IVIS, PerkinElmer, USA).
US and PAI of GNRs@Chit and GNRs@Chit-Iso4: High-resolution US and PA imaging have been acquired using the Vevo LAZR-X platform (FUJIFILM VisualSonics, Inc., Toronto, ON, Canada). The imaging platform includes a high frequency US system (Vevo 3100) combined with an Nd:YAG nano-second pulsed laser with repetition rate of 20 Hz. The linear US transducer array Mx 550D consists of 256 elements with a nominal center frequency of 40 MHz (25-55 MHz bandwidth) and a spatial resolution of 40 μm with a maximum imaging depth of 15 mm. Light from the laser is delivered to the tissue through optical fibers mounted on either side of the transducer. During volumetric US-PA acquisitions, a stepper motor is used for the linear translation of the US transducer and optical fibers along the sample. The linear stepper motor moves in steps of a minimum of 0:1 mm while capturing 2-D parallel images, for a maximum 3D range distance of 6.4 cm.
3D B mode scan was carried out for in vitro (drop) and in vivo (mouse bladder) studies. The photoacoustic spectra between 680 nm and 970 nm were scanned with a step size of 5 nm; for the in vivo studies (murine bladder) the 3D multispectral PA scans were acquired selecting PA spectral curve of tissue components melanin, deoxy- and oxy-generated blood, and GNRs; the processed wavelengths (680; 722; 764; 810; 924; 970 nm) were automatically selected from the spectral curve used to spectrally unmix the GNRs signal from other endogenous tissue chromophore signals such as oxy, deoxy hemoglobin. The algorithm reported by Luke et al was used to select these wavelengths which is ideal for separating the signal from GNRs from other endogenous absorbers.
Data analyses were conducted using the Vevo® Lab software; volumes of interest were obtained by manually drawing Volumes of Interest (VOIs) on 3D B-mode images. GNRs, melanin, oxy- and deoxy-hemoglobin content were estimated through spectral unmixing analyses of the spectroscopic data.

The next test concerns the target T1, human integrin α5β1 (Homo sapiens, UniProt P05556+P08648).
T1 construct: purchased Immunological Sciences (Rome, Italy)
Description: α5β1 integrin binding assay with HRP conjugates. To be noted: for binding of HRP conjugate to plates coated with α5β1: no detergent in buffers, OPD substrate. The method, then:
The final products were called Iso4-HRP and ARA-HRP. The conjugates were diluted (range 0-400 nM) in 25 mM Tris-HCl, pH 7.4, containing 150 mM sodium chloride, 1 mM magnesium chloride, 1 mM manganese chloride and 1% BSA (binding buffer-2) and added to 96-well plate polyvinyl chloride (PVC) microtiter plates (Carlo Erba, cod. FA5280100) coated with or without α5β1 (4 μg/ml) and left to incubate for 2 h. The plates were washed with 25 mM Tris-HCl, pH 7.4, containing 150 mM of sodium chloride, 1 mM of magnesium chloride, 1 mM of manganese chloride, and bound peroxidase was detected by adding a chromogenic solution (o-phenylenediamine dihydrochloride, OPD). The chromogenic reaction was stopped by adding 1 N sulfuric acid. The absorbance at 490 nm was then measured using a microtiter plate reader. The effect of human urine (from a healthy donor) on the binding of Iso4-HRP was studied as described above by mixing Iso4-HRP (300 nM final concentration) and various amounts of urine diluted in binding buffer-2.

Test [4] has as its system MB49-Luc cells. The test is described as follows: Binding of Iso4-Qdot / ARA-Qdot to cells (FACS). Type of test: cell-based, murine. To be noted: flow cytometry, 2 h at 37° C. The method, then: (§2) The binding of Iso4-Qdot and ARA-Qdot to MB49-Luc and 5637 cells was assessed through FACS and fluorescence microscopy experiments. FACS analysis was carried out as follows: the cells were detached with DPBS containing 5 mM EDTA pH 8.0 (DPBS-E), washed with DPBS, and suspended in 25 mM Hepes buffer, pH 7.4, containing 150 mM sodium chloride, 1 mM magnesium chloride, 1 mM manganese chloride, 1% BSA (binding buffer-1) and Iso4- or ARA-Qdot (range 30-0 nM, 5×10^5 cells/100 μl tube). After 2 h of incubation at 37° C., the cells were washed with binding buffer-1 without BSA and fixed with 4% formaldehyde. Bound fluorescence was detected using a CytoFLEX S cytofluorimeter (Beckman Coulter). The binding of Iso4-Qdot and ARA-Qdot to living 5637 cells was analyzed as follows: 5637 cells were cultured in a 96-well clear bottom black plate (5×10^4 cells/well) for 48 h, 5% CO2, 37° C. The plates were washed with binding buffer-1 and incubated with Iso4-Qdot or ARA-Qdot solution (30 nM in binding buffer-1) for 2 h at 37° C., 5% CO2. The cells were then washed with binding buffer-1, and fixed with 3% paraformaldehyde and 2% sucrose for 20 min. Bound fluorescence was acquired using the Cellomics ArrayScan XTI Studio Scan (Thermo Fischer Scientific) system.
In general terms: A flow cytometer gives signals particle by particle.

Test [5] relates to 5637 cells. Description: Binding of Iso4-Qdot / ARA-Qdot to cells (FACS, fluorescence microscopy). Type of test: cell-based, human. To be noted: flow cytometry and fluorescence microscopy, 2 h at 37° C. The method, then:
as §2

Test [6] has as its target mouse integrin α5 subunit on the surface of MB49-Luc cells (mouse) (UniProt P11688). Description: flow cytometry on MB49-Luc cells, 5 µg/ml antibody.
Test [7] addresses human integrin α5 subunit on the surface of human urothelial and bladder carcinoma cells (human) (UniProt P08648). The test is described as follows: flow cytometry on HT1376 bladder carcinoma cells, 5 µg/ml antibody.
The target is the same in test [8]. Description: flow cytometry on RT4 bladder carcinoma cells, 5 µg/ml antibody.
Test [9] shares this target. Description: flow cytometry on 5637 bladder carcinoma cells, 5 µg/ml antibody.
The target is the same in test [10]. Description: flow cytometry on PCS-420-010 primary urothelial cells, 5 µg/ml antibody.
The target is the same in test [11]. Description: flow cytometry on HBLAK primary urothelial cells, 5 µg/ml antibody.
Test [12] shares this target. The test is described as follows: flow cytometry on RT112 bladder carcinoma cells, 5 µg/ml antibody.
In test [13] the target is mouse integrin β1 subunit on the surface of MB49-Luc cells (mouse) (UniProt P09055). The test is described as follows: flow cytometry on MB49-Luc cells, 5 µg/ml antibody.
Sequence of mouse integrin β1 subunit on the surface of MB49-Luc cells (mouse) (P09055 21-798): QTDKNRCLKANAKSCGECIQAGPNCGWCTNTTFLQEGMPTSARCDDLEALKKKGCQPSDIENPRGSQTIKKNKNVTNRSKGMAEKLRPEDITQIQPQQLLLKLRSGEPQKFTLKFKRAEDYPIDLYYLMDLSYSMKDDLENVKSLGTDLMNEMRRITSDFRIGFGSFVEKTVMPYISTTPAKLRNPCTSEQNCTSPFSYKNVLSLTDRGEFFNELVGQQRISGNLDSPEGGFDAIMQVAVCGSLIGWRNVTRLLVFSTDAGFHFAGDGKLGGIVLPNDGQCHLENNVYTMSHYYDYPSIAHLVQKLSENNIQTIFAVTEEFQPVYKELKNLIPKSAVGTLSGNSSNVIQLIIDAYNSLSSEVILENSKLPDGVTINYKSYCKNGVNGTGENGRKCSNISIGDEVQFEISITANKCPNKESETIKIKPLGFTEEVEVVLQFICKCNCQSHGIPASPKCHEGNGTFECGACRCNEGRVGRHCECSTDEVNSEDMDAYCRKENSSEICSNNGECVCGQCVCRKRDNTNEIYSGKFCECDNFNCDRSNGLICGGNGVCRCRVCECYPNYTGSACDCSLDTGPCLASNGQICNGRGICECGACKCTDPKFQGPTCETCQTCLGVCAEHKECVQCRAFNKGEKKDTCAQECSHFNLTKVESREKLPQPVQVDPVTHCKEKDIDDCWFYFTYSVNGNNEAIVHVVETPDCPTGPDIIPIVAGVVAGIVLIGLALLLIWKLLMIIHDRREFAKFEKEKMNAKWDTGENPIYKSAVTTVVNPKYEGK
Test [14] deals with human integrin β1 subunit on the surface of human urothelial and bladder carcinoma cells (human) (UniProt P05556). Description: flow cytometry on HT1376 bladder carcinoma cells, 5 µg/ml antibody.
Sequence of human integrin β1 subunit on the surface of human urothelial and bladder carcinoma cells (human) (P05556 21-798): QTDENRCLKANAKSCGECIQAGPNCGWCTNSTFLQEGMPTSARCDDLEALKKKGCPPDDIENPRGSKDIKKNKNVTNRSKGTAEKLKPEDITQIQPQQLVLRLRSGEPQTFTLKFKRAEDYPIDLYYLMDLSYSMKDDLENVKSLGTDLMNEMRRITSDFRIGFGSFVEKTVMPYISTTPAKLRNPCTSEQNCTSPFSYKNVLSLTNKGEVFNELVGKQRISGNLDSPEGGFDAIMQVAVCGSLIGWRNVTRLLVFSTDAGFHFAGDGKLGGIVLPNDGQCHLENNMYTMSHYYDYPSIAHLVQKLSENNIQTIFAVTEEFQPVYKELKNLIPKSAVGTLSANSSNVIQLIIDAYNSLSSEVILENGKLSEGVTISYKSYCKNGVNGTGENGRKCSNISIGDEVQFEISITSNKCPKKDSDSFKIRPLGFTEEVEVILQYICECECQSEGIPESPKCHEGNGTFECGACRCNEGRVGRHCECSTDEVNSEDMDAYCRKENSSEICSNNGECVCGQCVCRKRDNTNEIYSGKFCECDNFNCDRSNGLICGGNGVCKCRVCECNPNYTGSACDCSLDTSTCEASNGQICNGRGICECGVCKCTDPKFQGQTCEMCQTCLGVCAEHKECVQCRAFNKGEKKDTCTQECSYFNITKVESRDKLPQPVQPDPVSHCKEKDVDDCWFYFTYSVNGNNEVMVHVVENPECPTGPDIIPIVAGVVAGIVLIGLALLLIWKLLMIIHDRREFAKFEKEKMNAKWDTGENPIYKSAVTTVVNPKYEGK
Test [15] shares this target. The test is described as follows: flow cytometry on RT4 bladder carcinoma cells, 5 µg/ml antibody.
Test [16] has the same target. Description: flow cytometry on 5637 bladder carcinoma cells, 5 µg/ml antibody.
For test [17] the target is unchanged. Description: flow cytometry on PCS-420-010 primary urothelial cells, 5 µg/ml antibody.
The target is the same in test [18]. The test is described as follows: flow cytometry on HBLAK primary urothelial cells, 5 µg/ml antibody.
Test [19] shares this target. The test is described as follows: flow cytometry on RT112 bladder carcinoma cells, 5 µg/ml antibody.
The target in test [20] is α5β1 integrin on murine MB49-Luc bladder cancer cells (mouse, UniProt P11688 45-1053; P09055 21-798). Description: cell-based or functional assay.
Sequence of α5β1 integrin on murine MB49-Luc bladder cancer cells (P11688 45-1053, chain 1 of 2): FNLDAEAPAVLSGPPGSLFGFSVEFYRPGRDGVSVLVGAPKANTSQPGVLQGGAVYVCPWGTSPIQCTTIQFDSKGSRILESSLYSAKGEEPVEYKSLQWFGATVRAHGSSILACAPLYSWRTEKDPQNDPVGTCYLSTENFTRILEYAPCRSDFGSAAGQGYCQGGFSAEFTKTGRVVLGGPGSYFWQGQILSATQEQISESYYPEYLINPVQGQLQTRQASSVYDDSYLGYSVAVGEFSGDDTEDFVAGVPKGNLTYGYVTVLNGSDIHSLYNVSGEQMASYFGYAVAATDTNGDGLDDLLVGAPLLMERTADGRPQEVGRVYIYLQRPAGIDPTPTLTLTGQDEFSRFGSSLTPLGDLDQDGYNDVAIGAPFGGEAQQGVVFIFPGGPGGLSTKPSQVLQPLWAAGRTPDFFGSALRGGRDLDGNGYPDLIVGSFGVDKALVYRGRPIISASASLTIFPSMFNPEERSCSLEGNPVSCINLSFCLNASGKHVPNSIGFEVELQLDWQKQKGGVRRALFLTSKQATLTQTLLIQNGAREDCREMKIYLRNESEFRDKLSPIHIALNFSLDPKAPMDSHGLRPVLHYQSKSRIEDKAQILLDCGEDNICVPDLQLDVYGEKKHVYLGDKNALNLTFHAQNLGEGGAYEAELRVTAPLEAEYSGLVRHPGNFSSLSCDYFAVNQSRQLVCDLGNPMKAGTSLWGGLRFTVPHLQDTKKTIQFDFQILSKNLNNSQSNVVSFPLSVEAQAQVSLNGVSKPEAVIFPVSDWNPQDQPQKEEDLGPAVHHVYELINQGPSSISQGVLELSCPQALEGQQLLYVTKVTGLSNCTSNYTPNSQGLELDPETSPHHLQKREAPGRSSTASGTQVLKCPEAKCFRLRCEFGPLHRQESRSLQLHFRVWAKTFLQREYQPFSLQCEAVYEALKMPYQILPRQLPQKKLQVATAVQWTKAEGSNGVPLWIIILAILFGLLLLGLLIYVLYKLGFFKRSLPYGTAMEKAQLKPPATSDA
Sequence of α5β1 integrin on murine MB49-Luc bladder cancer cells (P09055 21-798, chain 2 of 2): as the sequence (P09055 21-798) above
For test [21], the target named is α5β1 integrin on human 5637 bladder cancer cells (human, UniProt P08648 42-1049; P05556 21-798). The test is described as follows: cell-based or functional assay.
Sequence of α5β1 integrin on human 5637 bladder cancer cells (P08648 42-1049, chain 1 of 2): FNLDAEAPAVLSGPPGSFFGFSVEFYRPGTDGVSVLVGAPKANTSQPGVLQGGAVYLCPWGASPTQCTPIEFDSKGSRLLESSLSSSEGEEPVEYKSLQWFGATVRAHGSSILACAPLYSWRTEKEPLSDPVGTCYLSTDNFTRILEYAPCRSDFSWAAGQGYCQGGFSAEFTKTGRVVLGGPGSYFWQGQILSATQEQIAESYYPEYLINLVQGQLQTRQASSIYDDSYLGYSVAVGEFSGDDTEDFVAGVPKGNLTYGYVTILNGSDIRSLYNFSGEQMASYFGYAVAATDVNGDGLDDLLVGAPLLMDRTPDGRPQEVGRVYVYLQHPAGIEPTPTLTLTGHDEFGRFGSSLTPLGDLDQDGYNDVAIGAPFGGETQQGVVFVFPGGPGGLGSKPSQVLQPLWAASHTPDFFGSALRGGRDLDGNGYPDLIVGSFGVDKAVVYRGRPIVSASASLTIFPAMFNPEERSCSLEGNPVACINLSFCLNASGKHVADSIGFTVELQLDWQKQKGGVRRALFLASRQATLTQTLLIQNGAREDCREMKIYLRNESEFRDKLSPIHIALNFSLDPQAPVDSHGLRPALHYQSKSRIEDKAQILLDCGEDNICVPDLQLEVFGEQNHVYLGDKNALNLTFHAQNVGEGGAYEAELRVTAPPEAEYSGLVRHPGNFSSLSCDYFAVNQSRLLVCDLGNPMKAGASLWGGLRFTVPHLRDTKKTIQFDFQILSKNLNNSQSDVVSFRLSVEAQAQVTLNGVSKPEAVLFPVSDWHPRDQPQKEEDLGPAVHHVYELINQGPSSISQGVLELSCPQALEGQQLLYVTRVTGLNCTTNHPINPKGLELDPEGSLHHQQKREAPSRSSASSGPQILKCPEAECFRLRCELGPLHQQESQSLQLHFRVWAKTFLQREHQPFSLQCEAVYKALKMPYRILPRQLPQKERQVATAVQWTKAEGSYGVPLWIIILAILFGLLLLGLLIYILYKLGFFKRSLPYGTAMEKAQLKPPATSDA
Sequence of α5β1 integrin on human 5637 bladder cancer cells (P05556 21-798, chain 2 of 2): as the sequence (P05556 21-798) above

Starred links: 1 amine or outer side, 2 acyl side, 3 side chain; linkers in the order of their positions; H or OH if unused. Positions of bridges follow the written chain, without caps; N, C: chain ends. Non-standard residues stand in square brackets, D forms with d. Residues, ends and D or L forms follow the SMILES beside them. βAsp = O=C(O)[C@H](CC(=O)[*:2])N[*:1]; dPhg = N[C@@H](C(=O)O)c1ccccc1; Phg = N[C@H](C(=O)O)c1ccccc1

Ten molecules from patent US20260097138A1, “BIOMATERIAL COATED NANOSTRUCTURES FOR PHOTOACOUSTIC IMAGING AND PHOTOTHERMAL THERAPY OF TUMOR LESIONS” (OSPEDALE SAN RAFFAELE S.R.L., priority 2022, published 2026) can be followed below.

Sequence of human integrin α5 subunit on the surface of human urothelial and bladder carcinoma cells (human) (P08648 42-1049): as the sequence (P08648 42-1049, chain 1 of 2) above
T1 sequence (P08648 42-894 limits assumed): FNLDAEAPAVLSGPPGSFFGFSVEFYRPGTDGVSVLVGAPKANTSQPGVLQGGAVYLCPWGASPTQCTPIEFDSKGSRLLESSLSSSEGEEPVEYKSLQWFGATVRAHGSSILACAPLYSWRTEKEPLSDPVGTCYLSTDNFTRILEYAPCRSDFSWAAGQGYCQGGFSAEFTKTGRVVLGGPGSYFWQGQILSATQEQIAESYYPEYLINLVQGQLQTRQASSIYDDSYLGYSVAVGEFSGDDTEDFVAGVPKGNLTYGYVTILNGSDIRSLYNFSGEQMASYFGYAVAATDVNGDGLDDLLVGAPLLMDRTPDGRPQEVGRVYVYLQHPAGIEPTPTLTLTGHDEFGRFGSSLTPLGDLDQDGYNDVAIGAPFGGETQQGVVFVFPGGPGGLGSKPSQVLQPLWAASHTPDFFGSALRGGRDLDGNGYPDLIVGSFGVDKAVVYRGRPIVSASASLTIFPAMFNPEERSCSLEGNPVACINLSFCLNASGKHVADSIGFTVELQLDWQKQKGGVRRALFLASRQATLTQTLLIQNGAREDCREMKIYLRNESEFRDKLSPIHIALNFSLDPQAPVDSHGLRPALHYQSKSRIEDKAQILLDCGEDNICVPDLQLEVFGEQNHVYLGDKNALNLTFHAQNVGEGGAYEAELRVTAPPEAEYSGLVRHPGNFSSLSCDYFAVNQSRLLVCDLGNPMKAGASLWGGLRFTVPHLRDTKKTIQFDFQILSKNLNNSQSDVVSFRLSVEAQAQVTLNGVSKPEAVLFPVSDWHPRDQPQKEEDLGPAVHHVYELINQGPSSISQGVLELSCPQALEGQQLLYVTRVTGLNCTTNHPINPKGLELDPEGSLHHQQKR
T1 sequence (P08648 895-1049 partner limits assumed): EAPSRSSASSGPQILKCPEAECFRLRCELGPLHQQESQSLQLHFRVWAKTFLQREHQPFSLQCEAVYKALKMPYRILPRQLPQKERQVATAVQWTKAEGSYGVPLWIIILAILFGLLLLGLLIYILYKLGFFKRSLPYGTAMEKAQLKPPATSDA
T1 sequence (P05556 21-798): as the sequence (P05556 21-798) above
Sequence of mouse integrin α5 subunit on the surface of MB49-Luc cells (mouse) (P11688 45-1053): as the sequence (P11688 45-1053, chain 1 of 2) above

With `N=C(N)NCCC[C@@H]1NC(=O)CNC(=O)C[C@@H](C(=O)O)NC(=O)[C@H](c2ccccc2)NC(=O)[C@H](CS)NC(=O)CNC1=O` [Iso4, c(CphgisoDGRG), reference compound] (GRGC[Phg]D-OH; lactam N-6), the “effect of excess free peptide on cell adhesion to GNRs@Chit-Iso4-coated plates” value with MB49-Luc cells [1] and in the test with 5637 cells [2] was “completely inhibited cell adhesion” each time. Moreover, the “effect of co-administered excess free peptide on binding of GNR@Chit-Iso4 to MB49-Luc tumors” value in test [3] was “reduced”.

As for “ARA-HRP: HRP control conjugate using the ARA peptide instead of Iso4”, the “binding of HRP conjugate to plates coated with α5β1” value in the test with human integrin α5β1 was “but not ARA-HRP, could bind α5β1 in a dose dependent manner”.

Turning to “ARA-Qdot: c(CGARAG) peptide coupled to Qdot, negative control (cyclo(CGARAG); not fully specified (residue 1); also: coupled to Qdot605 quantum dot via Cys thiol)”, the “binding of Qdot conjugate to cells” value was “but not the ARA-Qdot, bound these cells” in the test on MB49-Luc cells [4] and “but not the ARA-Qdot, bound these cells” in the test on 5637 cells [5].

Take “Iso4-HRP: Iso4 conjugated to maleimide-activated horseradish peroxidase via thiol group”: in the test with human integrin α5β1 (in 90% of urine, Iso4-HRP 300 nM), the “recovery of binding to α5β1 in human urine” value is “about 55%”. Also, the “binding of HRP conjugate to plates coated with α5β1” value with human integrin α5β1 is listed as “could bind α5β1 in a dose dependent manner”.

Turning to “Iso4-Qdot: Iso4 coupled to fluorescent nanoparticles (Quantum Dots, Qdot) via the sulfhydryl group of the cysteine”, the “binding of Qdot conjugate to cells” value with MB49-Luc cells [4] and with 5637 cells [5] was “bound these cells” throughout.

For “anti-α5 integrin hamster monoclonal antibody, clone HMα5-1”, the Fold (mean fluorescence intensity over isotype control) in test [6] is 3.79 fold.

Regarding “anti-α5 integrin mouse monoclonal antibody, clone P1D6”, the Fold (median fluorescence intensity over isotype control) in [7] worked out at 4.1 fold; in [8] it was 6 fold; in test [9] it was 1.9 fold; in test [10], 1.5 fold; in test [11], 2.1 fold; in [12], 5.8 fold.

In turn, “anti-β1 integrin hamster monoclonal antibody, clone HMβ1-1” displayed a Fold (mean fluorescence intensity over isotype control) in test [13] of 8.02 fold.

With “anti-β1 integrin mouse monoclonal antibody, clone P5D2”, the Fold (median fluorescence intensity over isotype control) in test [14] is 11.9 fold; in test [15], 18.6 fold; in test [16], 40.5 fold; in test [17], 1.2 fold; in test [18] it was 0.8 fold; in test [19] it was 38.7 fold.

B1: GNRs@Chit-Iso4 (gold nanorods coated with thiolated chitosan, carrying Iso4 via maleimide-PEG12-NHS) (other)
peptide: cyclo(C[dPhg][βAsp]GRG)
modifications: not fully specified (residue 1); also: Cys thiol coupled via maleimide-PEG12-NHS linker to thiolated-chitosan-coated gold nanorods
For B1, the results for the “effective concentration 50 (EC50) of cell adhesion to plates coated with GNRs@Chit-Iso4” value in test [20] and in test [21] were 0.73 µg/mL and 1.3 µg/mL, respectively.
